Test [1] deals with human PD-L1 (human) (UniProt Q9NZQ7). The test is described as follows: cell-based or functional assay.
Test [2] concerns the target human CD40 (human) (UniProt P25942). In words: FACS, CHO-K1/hCD40 cells. In general terms: Flow cytometry measures light scatter and fluorescence of single cells or particles in a stream.
In test [3] the target is human PD-L1 (human) (UniProt Q9NZQ7). In words: FACS, NCI-H226 cells.
Test [4] addresses human CD40 (human) (UniProt P25942). The test is described as follows: FACS, Raji cells.
Test [5] addresses human PD-L1 (human) (UniProt Q9NZQ7). In words: FACS, CHO-K1/hPD-L1 cells.
Test [6] has as its target cynomolgus monkey CD40 (cynomolgus monkey). In words: FACS, CHO-K1/cyCD40 cells.
Test [7] concerns the target cynomolgus monkey PD-L1 (cynomolgus monkey). The test is described as follows: FACS, CHO-K1/cyPD-L1 cells.

Chain of human PD-L1 (human) (Q9NZQ7 19-290): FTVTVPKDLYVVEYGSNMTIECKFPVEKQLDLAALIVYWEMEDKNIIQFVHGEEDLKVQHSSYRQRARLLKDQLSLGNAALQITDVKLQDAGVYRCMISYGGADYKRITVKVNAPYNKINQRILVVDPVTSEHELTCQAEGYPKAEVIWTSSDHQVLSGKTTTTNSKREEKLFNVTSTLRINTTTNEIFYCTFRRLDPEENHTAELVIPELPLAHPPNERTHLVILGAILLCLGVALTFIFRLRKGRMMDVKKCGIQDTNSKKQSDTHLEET
Chain of human CD40 (human) (P25942 21-277): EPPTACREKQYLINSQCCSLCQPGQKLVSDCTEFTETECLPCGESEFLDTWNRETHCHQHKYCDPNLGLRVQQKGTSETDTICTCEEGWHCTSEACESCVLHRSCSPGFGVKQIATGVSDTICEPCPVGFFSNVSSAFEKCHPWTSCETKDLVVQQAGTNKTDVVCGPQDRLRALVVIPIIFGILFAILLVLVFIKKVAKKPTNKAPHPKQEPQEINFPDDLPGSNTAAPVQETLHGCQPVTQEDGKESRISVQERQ

Regarding Isotype (antibody), the Maximum RLU, Jurkat-NFAT-hPD1 reporter in test [1] is 403 RLU. In addition, the Maximum MFI in test [2] worked out at 23 MFI; in test [3] it was 55 MFI; in test [4] it was 78 MFI; in test [5] it was 170 MFI; in test [6], 59 MFI; in test [7] it was 50 MFI.
Take hIgG1 (antibody): in test [1], the Maximum RLU, Jurkat-NFAT-hPD1 reporter was found to be 2370 RLU. This substance also displayed a Maximum MFI in test [5] of 86 MFI.
